Test results taken from patent US20100261620A1 (published 2010).
Residue numbers refer to the chain shown, from its start.

B1: M453 (antibody, V domains shown)
VH: QVTLKESGPVLVKPTETLTLTCTVSGFSLSTYGMGVGWIRQPPGKALEWLAHIWWDDVKRYNPALKSRLTISKDTSKSQVVLTMTNMDPVDTATYYCARMGSDYDVWFDYWGQGTLVTVSS
VL: EIVLTQSPATLSLSPGERATLSCRASKSISKYLAWYQQKPGQAPRLLIYSGSTLQSGIPARFSGSGSGTDFTLTISSLEPEDFAVYYCQQHDWGPYTFGQGTKLEIK
notes: anti-IL-13, human IgG1
B2: M1292 (antibody, V domains shown)
VH: B1 VH with M34E, M100L
VL: EIVLTQSPATLSLSPGERATLSCRASKSISKYLAWYQQKPGQAPRLLIYSGSTLQSGIPARFSGSGSGTDFTLTISSLEPEDFAVYYCQQHDYPYTFGQGTKLEIK
B3: M464 (antibody, V domains shown)
VH: B1 VH
VL: B1 VL with D92E
notes: anti-IL-13, human IgG1
B4: M474 (antibody, V domains shown)
VH: B1 VH
VL: B1 VL with W93L
notes: anti-IL-13, human IgG1
B5: M472 (antibody, V domains shown)
VH: B1 VH
VL: B1 VL with H91P, D92L, W93D, G94S
notes: anti-IL-13, human IgG1
B6: M461 (antibody, V domains shown)
VH: B1 VH
VL: B1 VL with D92S, W93I
notes: anti-IL-13, human IgG1
B7: M471 (antibody, V domains shown)
VH: B1 VH
VL: B1 VL with H91P, D92I, W93D, G94A
notes: anti-IL-13, human IgG1
B8: M446 (antibody, V domains shown)
VH: B1 VH
VL: B1 VL with D92V, W93G
notes: anti-IL-13, human IgG1
B9: H2L6 HFS variant (antibody, V domains shown)
VH: B1 VH
VL: B1 VL with D92N, W93E, G94Y
notes: IgG1; also called IL13-62
B10: M465 (antibody, V domains shown)
VH: B1 VH
VL: B1 VL with W93N, G94S
notes: anti-IL-13, human IgG1
B11: M462 (antibody, V domains shown)
VH: B1 VH
VL: B1 VL with D92N, W93F
notes: anti-IL-13, human IgG1
B12: M473 (antibody, V domains shown)
VH: B1 VH
VL: B1 VL with W93R, G94D
notes: anti-IL-13, human IgG1
B13: M475 (antibody, V domains shown)
VH: B1 VH
VL: B1 VL with D92L, W93M
notes: anti-IL-13, human IgG1
B14: M466 (antibody, V domains shown)
VH: B1 VH
VL: B1 VL with G94S
notes: anti-IL-13, human IgG1
B15: M452 (antibody, V domains shown)
VH: B1 VH
VL: B1 VL with D92L, W93N
notes: anti-IL-13, human IgG1
B16: M468 (antibody, V domains shown)
VH: B1 VH
VL: B1 VL with D92F
notes: anti-IL-13, human IgG1
B17: M454 (antibody, V domains shown)
VH: B1 VH
VL: B1 VL with H91Q, W93Y
notes: anti-IL-13, human IgG1
B18: M469 (antibody, V domains shown)
VH: B1 VH
VL: B1 VL with G94E
notes: anti-IL-13, human IgG1
B19: M482 (antibody, V domains shown)
VH: B1 VH
VL: B1 VL with D92L, W93D, G94S
notes: anti-IL-13, human IgG1; printed changes are the same as for M470
B20: M449 (antibody, V domains shown)
VH: B1 VH
VL: B1 VL with D92E, W93S
notes: anti-IL-13, human IgG1
B21: M457 (antibody, V domains shown)
VH: B1 VH
VL: B1 VL with W93Y, G94A
notes: anti-IL-13, human IgG1
B22: M445 (antibody, V domains shown)
VH: B1 VH
VL: B1 VL with D92L, W93L
notes: anti-IL-13, human IgG1
B23: M467 (antibody, V domains shown)
VH: B1 VH
VL: B1 VL with D92S, G94A
notes: anti-IL-13, human IgG1
B24: M463 (antibody, V domains shown)
VH: B1 VH
VL: B1 VL with H91Q, W93L
notes: anti-IL-13, human IgG1
B25: M1268 (antibody, V domains shown)
VH: B1 VH with M34V, M100L
VL: B1 VL with D92N, W93E, G94Y
notes: anti-IL-13, human IgG1; text gives the Met positions as 34 and 100; copies: 2 + 2
B26: M443 (antibody, V domains shown)
VH: B1 VH
VL: B1 VL with D92S
notes: anti-IL-13, human IgG1
B27: M448 (antibody, V domains shown)
VH: B1 VH
VL: B1 VL with D92S, W93H
notes: anti-IL-13, human IgG1
B28: M456 (antibody, V domains shown)
VH: B1 VH
VL: B1 VL with D92S, W93Y
notes: anti-IL-13, human IgG1
B29: M459 (antibody, V domains shown)
VH: B1 VH
VL: B1 VL with H91P, D92L, W93E, G94A
notes: anti-IL-13, human IgG1
B30: M455 (antibody, V domains shown)
VH: B1 VH
VL: B1 VL with D92N, W93E, G94A
notes: anti-IL-13, human IgG1
B31: M477 (antibody, V domains shown)
VH: B1 VH
VL: B1 VL with D92S, W93S
notes: anti-IL-13, human IgG1
B32: M447 (antibody, V domains shown)
VH: B1 VH
VL: B1 VL with H91Q, W93I
notes: anti-IL-13, human IgG1
B33: M451 (antibody, V domains shown)
VH: B1 VH
VL: B1 VL with H91P, D92L, W93D, G94V
notes: anti-IL-13, human IgG1
B34: M476 (antibody, V domains shown)
VH: B1 VH
VL: B1 VL with D92S, W93V
notes: anti-IL-13, human IgG1
B35: M478 (antibody, V domains shown)
VH: B1 VH
VL: B1 VL with D92N, W93H
notes: anti-IL-13, human IgG1
B36: M479 (antibody, V domains shown)
VH: B1 VH
VL: B1 VL with H91P, D92L, W93D, G94T
notes: anti-IL-13, human IgG1
B37: M450 (antibody, V domains shown)
VH: B1 VH
VL: B1 VL with W93P
notes: anti-IL-13, human IgG1
B38: M470 (antibody, V domains shown)
VH: B1 VH
VL: B1 VL with D92L, W93D, G94S
notes: anti-IL-13, human IgG1
B39: M444 (antibody, V domains shown)
VH: B1 VH
VL: B1 VL with D92V
notes: anti-IL-13, human IgG1

Target: IL-13 (Homo sapiens (Human), UniProt P35225 35-146, limits assumed)
Experiment: Biacore

Sequence of IL-13 (P35225 35-146 limits assumed): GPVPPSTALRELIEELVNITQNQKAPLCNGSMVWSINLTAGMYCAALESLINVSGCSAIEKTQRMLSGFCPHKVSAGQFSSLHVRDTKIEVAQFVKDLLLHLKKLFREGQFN

| Binder | Kd | koff | kon |
| --- | --- | --- | --- |
| B1 | 0.044 nM | 4.7e-05 s⁻¹ | 1.06e+06 M⁻¹ s⁻¹ |
| B2 | 0.008 nM | 8e-06 s⁻¹ | 1.05e+06 M⁻¹ s⁻¹ |
| B3 | 0.055 nM | 7.1e-05 s⁻¹ | 1.29e+06 M⁻¹ s⁻¹ |
| B4 | 0.365 nM | 0.000348 s⁻¹ | 950000 M⁻¹ s⁻¹ |
| B5 | 0.259 nM | 0.000375 s⁻¹ | 1.44e+06 M⁻¹ s⁻¹ |
| B6 | 0.193 nM | 0.000257 s⁻¹ | 1.33e+06 M⁻¹ s⁻¹ |
| B7 | 0.253 nM | 0.000364 s⁻¹ | 1.44e+06 M⁻¹ s⁻¹ |
| B8 | 0.345 nM | 0.000465 s⁻¹ | 1.35e+06 M⁻¹ s⁻¹ |
| B9 | 0.754 nM | 0.000944 s⁻¹ | 1.25e+06 M⁻¹ s⁻¹ |
| B10 | 0.306 nM | 0.000336 s⁻¹ | 1.1e+06 M⁻¹ s⁻¹ |
| B11 | 0.366 nM | 0.000417 s⁻¹ | 1.14e+06 M⁻¹ s⁻¹ |
| B12 | 0.312 nM | 0.000403 s⁻¹ | 1.29e+06 M⁻¹ s⁻¹ |
| B13 | 0.187 nM | 0.000213 s⁻¹ | 1.14e+06 M⁻¹ s⁻¹ |
| B14 | 0.225 nM | 0.000219 s⁻¹ | 970000 M⁻¹ s⁻¹ |
| B15 | 0.233 nM | 0.00027 s⁻¹ | 1.16e+06 M⁻¹ s⁻¹ |
| B16 | 0.094 nM | 0.0001 s⁻¹ | 1.06e+06 M⁻¹ s⁻¹ |
| B17 | 0.065 nM | 7.4e-05 s⁻¹ | 1.13e+06 M⁻¹ s⁻¹ |
| B18 | 0.1 nM | 0.000143 s⁻¹ | 1.43e+06 M⁻¹ s⁻¹ |
| B19 | 0.296 nM | 0.0003 s⁻¹ | 1.02e+06 M⁻¹ s⁻¹ |
| B20 | 0.089 nM | 9e-05 s⁻¹ | 1.02e+06 M⁻¹ s⁻¹ |

| Binder | Kd | koff | kon |
| --- | --- | --- | --- |
| B21 | 0.193 nM | 0.000214 s⁻¹ | 1.11e+06 M⁻¹ s⁻¹ |
| B22 | 0.262 nM | 0.000291 s⁻¹ | 1.11e+06 M⁻¹ s⁻¹ |
| B23 | 0.452 nM | 0.000455 s⁻¹ | 1e+06 M⁻¹ s⁻¹ |
| B24 | 0.037 nM | 6.3e-05 s⁻¹ | 1.7e+06 M⁻¹ s⁻¹ |
| B25 | 0.621 nM | 0.001 s⁻¹ | 1.61e+06 M⁻¹ s⁻¹ |
| B26 | 0.088 nM | 7.8e-05 s⁻¹ | 880000 M⁻¹ s⁻¹ |
| B27 | 0.092 nM | 0.000127 s⁻¹ | 1.39e+06 M⁻¹ s⁻¹ |
| B28 | 0.148 nM | 0.000182 s⁻¹ | 1.24e+06 M⁻¹ s⁻¹ |
| B29 | 0.356 nM | 0.000449 s⁻¹ | 1.26e+06 M⁻¹ s⁻¹ |
| B30 | 0.186 nM | 0.000303 s⁻¹ | 1.63e+06 M⁻¹ s⁻¹ |
| B31 | 0.495 nM | 0.00048 s⁻¹ | 970000 M⁻¹ s⁻¹ |
| B32 | 0.055 nM | 5.4e-05 s⁻¹ | 980000 M⁻¹ s⁻¹ |
| B33 | 0.177 nM | 0.000333 s⁻¹ | 1.88e+06 M⁻¹ s⁻¹ |
| B34 | 0.315 nM | 0.000321 s⁻¹ | 1.02e+06 M⁻¹ s⁻¹ |
| B35 | 0.208 nM | 0.000247 s⁻¹ | 1.19e+06 M⁻¹ s⁻¹ |
| B36 | 0.192 nM | 0.00024 s⁻¹ | 1.25e+06 M⁻¹ s⁻¹ |
| B37 | 0.063 nM | 0.000107 s⁻¹ | 1.71e+06 M⁻¹ s⁻¹ |
| B38 | 0.239 nM | 0.000311 s⁻¹ | 1.3e+06 M⁻¹ s⁻¹ |
| B39 | 0.184 nM | 0.00022 s⁻¹ | 1.2e+06 M⁻¹ s⁻¹ |
